The target in experiment [1] is T1, human mesothelin (MSLN) peptide on HLA-A*02:01 (human).
T1 peptide: SLLFLLFSL
In words: multimer staining.

For experiment [2], the target named is T2, human mesothelin (MSLN) peptide on HLA-A*02:01 (human).
T2 peptide: VLPLTVAEV
In words: multimer staining.

B1: MSLN20-28 clone 2 (TCR, V domains shown)
Valpha: DQQVKQNSPSLSVQEGRISILNCDYTNSMFDYFLWYKKYPAEGPTFLISISSIKDKNEDGRFTVFLNKSAKHLSLHIVPSQPGDSAVYFCAASGNTDKLIFGTGTRLQVFP
Vbeta: EPEVTQTPSHQVTQMGQEVILRCVPISNHLYFYWYRQILGQKVEFLVSFYNNEISEKSEIFDDQFSVERPDGSNFTLKIRSTKLEDSAMYFCASRPGWSYEQYFGPGTRLTVT
On to B1, for which, in experiment [1], the binding result was “recognises”.

B2: MSLN530-538 clone 4 (TCR, V domains shown)
Valpha: AQTVTQSQPEMSVQEAETVTLSCTYDTSESDYYLFWYKQPPSRQMILVIRQEAYKQQNATENRFSVNFQKAAKSFSLKISDSQLGDAAMYFCAYLGTGTYKYIFGTGTRLKVLA
Vbeta: EAQVTQNPRYLITVTGKKLTVTCSQNMNHEYMSWYRQDPGLGLRQIYYSMNVEVTDKGDVPEGYKVSRKEKRNFPLILESPSPNQTSLYFCASSSGGLGYTFGSGTRLTVV
B2: the binding result in experiment [2] is “recognises”.

B3: MSLN530-538 clone 5 (TCR, V domains shown)
Valpha: TQLLEQSPQFLSIQEGENLTVYCNSSSVFSSLQWYRQEPGEGPVLLVTVVTGGEVKKLKRLTFQFGDARKDSSLHITAAQTGDTGLYLCAGGMESGGGADGLTFGKGTHLIIQP
Vbeta: DTGVSQNPRHKITKRGQNVTFRCDPISEHNRLYWYRQTLGQGPEFLTYFQNEAQLEKSRLLSDRFSAERPKGSFSTLEIQRTEQGDSAMYLCASTSTGGLKNTEAFFGQGTRLTVV
As to B3, the binding result in experiment [2] is “recognises”.

B4: MSLN20-28 clone 7 (TCR, V domains shown)
Valpha: ILNVEQSPQSLHVQEGDSTNFTCSFPSSNFYALHWYRWETAKSPEALFVMTLNGDEKKKGRISATLNTKEGYSYLYIKGSQPEDSATYLCAFYMDSNYQLIWGAGTKLIIKP
Vbeta: NAGVTQTPKFQVLKTGQSMTLQCAQDMNHNSMYWYRQDPGMGLRLIYYSASEGTTDKGEVPNGYNVSRLNKREFSLRLESAAPSQTSVYFCASSEWTAEQYFGPGTRLTVT
B4: the binding result in experiment [1] is “recognises”.

B5: MSLN20-28 clone 8 (TCR, V domains shown)
Valpha: AQSVTQLDSQVPVFEEAPVELRCNYSSSVSVYLFWYVQYPNQGLQLLLKYLSGSTLVKGINGFEAEFNKSQTSFHLRKPSVHISDTAEYFCAVIPNNNARLMFGDGTQLVVKP
Vbeta: ETGVTQTPRHLVMGMTNKKSLKCEQHLGHNAMYWYKQSAKKPLELMFVYNFKEQTENNSVPSRFSPECPNSSHLFLHLHTLQPEDSALYLCASGQGTEAFFGQGTRLTVV
Consider B5, for which the binding result in experiment [1] is listed as “recognises”.

The values above are taken from US20240209058A1 (published 2024).
